Laboratory results taken from the supplement of paper PMC10126150.
± gives the standard deviation of the averaged measurements.

Tested on: ATP
Test: switch fluorescence ratio, 500 uM ATP over buffer (Cy3 cluster intensity, sum of 5 cycles each) (fold (ratio)); higher = stronger signal-on switching upon ATP binding; sequences stand for … in TCGTCGGCAGCGTCAGATGTGTATAAGAGACAGTTTTTTTTTTTTTTTTTTTTTTTTT…TC
Conditions: aptamer strand: ATP DNA aptamer (quencher-CACCTGGGGGAGTATTGCGGAGGAAGG + anchor), 100 nM annealed; ATP concentration: 500 uM
Summary of the method: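 Imaging in selection buffer was followed by imaging after 15 min with 500 uM ATP at 22 °C, for Cy3-labelled switching-strand clusters annealed to 100 nM quencher-labelled ATP aptamer on a modified Illumina MiSeq flow-cell. Five of these buffer/ATP cycles ran, separated by NaOH stripping and re-annealing. The fluorescence ratio per cluster is summed target-cycle over summed buffer-cycle Cy3 intensity, averaged per switch-domain sequence; clusters outside 100-1000 RFU were removed.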
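Further: ATP exposure 15 min at 22 °C before imaging.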

Row | Sequence | switch fluorescence ratio
1 | ATAAAACGC | 1.04 ± 0.071
2 | AGGGGCTTCG | 1.04 ± 0.015
3 | TTTGTACTTT | 1.01 ± 0.041
4 | CGTCTAGACT | 1.018 ± 0.0036
5 | TAAAATTTAG | 1 ± 0.04
6 | TAGGTCCCTG | 0.99 ± 0.042
7 | CTAGATGTTG | 0.977 ± 0.0027
8 | GGGTCAGTCC | 0.978 ± 0.019
9 | CGTGTTACGG | 0.994 ± 0.046
10 | TTCGGAAATG | 1.03 ± 0.025
11 | ATGGGGAGTC | 0.985 ± 0.035
12 | TTGACACTCG | 0.98 ± 0.021
13 | TTTGGAATAC | 2.92 ± 1
14 | TGGAAGGGTT | 0.994 ± 0.028
15 | ATGGTCATAA | 0.993 ± 0.022
16 | TTATGCAAAA | 1.14 ± 0.21
17 | TTTGGCGTTT | 1.01 ± 0.024
18 | TATGACATTA | 1.025 ± 0.0026
19 | AGGCGTTTAG | 1.03 ± 0.059
20 | ATTTTGTTGG | 1.11 ± 0.2
21 | GTGGGGGACT | 1.28 ± 0.5
22 | TAGAAGGGGT | 0.969 ± 0.047
23 | GAACTGGGGG | 1 ± 0.019

Row | Sequence | switch fluorescence ratio
24 | GGAAGGGATT | 1.05 ± 0.08
25 | ATATTGGTTA | 0.9923 ± 0.0052
26 | GCACGTTTTT | 1 ± 0.03
27 | GAACTTCGGT | 0.946 ± 0.013
28 | GCTGAAGGAT | 1 ± 0.0058
29 | GTGCTTGCGG | 1.01 ± 0.036
30 | GGTGTTTGGA | 0.986 ± 0.0099
31 | GTGGGTTATC | 1.004 ± 0.007
32 | TTTAGGTAAT | 1.016 ± 0.0074
33 | TCGATGAGGG | 1.02 ± 0.026
34 | CAATGACACT | 1.04 ± 0.044
35 | CATTAGTTTC | 1 ± 0.028
36 | GAGAGGGATG | 1.01 ± 0.043
37 | TTGTTTGGCC | 1.05 ± 0.079
38 | CGGGGCGAGG | 1 ± 0.017
39 | CTTCGGACCG | 1.03 ± 0.096
40 | CGCAGTCTGT | 1.12 ± 0.012
41 | GTGCGGAGTG | 0.97 ± 0.041
42 | ATTTCTAGGA | 0.987 ± 0.015
43 | CTGGCGACAC | 1.39 ± 0.14
44 | CCGAAGAGTC | 1.66 ± 0.28
45 | TTTACACAGG | 1.17 ± 0.035
46 | ACGGGGAGGG | 1.04 ± 0.037

Row | Sequence | switch fluorescence ratio
47 | GCTGGGGCGG | 0.98 ± 0.029
48 | AAATATCTCA | 1.02 ± 0.013
49 | CATTTAGTAT | 1.01 ± 0.013
50 | TTTTTGTTGC | 1.02 ± 0.02
51 | TAGCGGCGGC | 1.01 ± 0.016
52 | TCAGCGAATT | 0.98 ± 0.015
53 | GGGATAGTTT | 1 ± 0.063
54 | ATATGATAGA | 0.9921 ± 0.0026
55 | GCTTTATTCC | 1.06 ± 0.018
56 | CAACGCATTT | 2.36 ± 0.44
57 | TTAGCAACGA | 1.09 ± 0.039
58 | CGGTTCTGTA | 1.01 ± 0.027
59 | TTGTGGTTTG | 0.992 ± 0.034
60 | CCCGGGGGGG | 1.1 ± 0.13
61 | TTTGCAGGGA | 1.06 ± 0.1
62 | TTAGTGTTTT | 0.98 ± 0.05
63 | TGGAGGGAGG | 1.01 ± 0.023
64 | TTGGGTTCCT | 1.04 ± 0.11
65 | GTTTGGAGGC | 1.01 ± 0.016
66 | ATGAAAGCAC | 1.09 ± 0.061
67 | TATAAGGGGT | 0.9862 ± 0.0083
68 | GGTGGTTATT | 0.996 ± 0.014
69 | GTTGGAAACT | 1.04 ± 0.017

Row | Sequence | switch fluorescence ratio
70 | AGAGGGGAAG | 1.005 ± 0.0087
71 | TAGGTAACCG | 0.943 ± 0.056
72 | AATACCAAAT | 0.999 ± 0.049
73 | AATGTGAGAC | 1.07 ± 0.073
74 | ACTGGTTTGG | 1.04 ± 0.063
75 | TATGTGACTT | 1.03 ± 0.0074
76 | TTTAAAACGC | 1.01 ± 0.099
77 | CAGGGGTTGC | 1.01 ± 0.013
78 | AGGTACGGGG | 0.971 ± 0.012
79 | TTGAGAATAC | 1.62 ± 0.68
80 | GATTCGGCGT | 0.9867 ± 0.0067
81 | AAGTAACGTC | 1.041 ± 0.01
82 | GTCACCTTGA | 1.01 ± 0.014
83 | AATGGAATCC | 1.02 ± 0.035
84 | AATACAAGGC | 1.076 ± 0.006
85 | ATGCATATGG | 1.03 ± 0.013
86 | GTAATGCCAG | 0.986 ± 0.031
87 | CTCAGGGATT | 1.07 ± 0.033
88 | AAATATCTCT | 0.982 ± 0.048
89 | ACGATGCGGG | 1.09 ± 0.025
90 | TTGATATGGA | 0.98 ± 0.022
91 | CCCAAAGGGG | 1.04 ± 0.04
92 | AAGCGTGTGG | 1 ± 0.036

Row | Sequence | switch fluorescence ratio
93 | CGGGAAGAGC | 1.033 ± 0.0043
94 | TATGAAGACG | 1.12 ± 0.064
95 | GGTCTTGCGA | 0.9755 ± 0.0078
96 | GCACGCGGGG | 1.009 ± 0.0015
97 | CCAATATTCG | 1.09 ± 0.056
98 | TACAGGTATC | 0.9796 ± 0.0048
99 | TCGCGAAATT | 0.9763 ± 0.0042
100 | TTTATTTTTG | 0.992 ± 0.029
101 | AGGTGTGAGA | 1.06 ± 0.044
102 | ACACGTAACT | 1.359 ± 0.0099
103 | TGACGGGGGC | 1.01 ± 0.014
104 | ATACGCCGGT | 1.013 ± 0.004
105 | CGTTGATTTG | 0.9908 ± 0.0057
106 | TTTTTAAAGG | 0.976 ± 0.013
107 | TTTGTGCGTC | 0.977 ± 0.055
108 | GTGTCTGAGC | 0.966 ± 0.031
109 | TTATTCATCG | 1.01 ± 0.031
110 | AATATGAAGG | 1 ± 0.019
111 | TCAATGGTTG | 0.988 ± 0.028
112 | GTTAGAAGTG | 0.9855 ± 0.006
113 | AGGGTAACGA | 0.999 ± 0.035
114 | ATGTTTGAGT | 1.01 ± 0.026
115 | TAGTAGGGTG | 1.03 ± 0.036

Row | Sequence | switch fluorescence ratio
116 | GGTACTATTT | 1 ± 0.026
117 | TGATTATGTT | 1.04 ± 0.035
118 | GGGGTATTAT | 1 ± 0.028
119 | TCGGGTTTAG | 1.04 ± 0.04
120 | AGGATTGTGT | 0.9523 ± 0.0032
121 | ACGTTGCAGA | 1.006 ± 0.006
122 | GGGGGAACGG | 1.08 ± 0.1
123 | GGAATTGGGC | 1.03 ± 0.022
124 | TCTTATAGGT | 0.986 ± 0.017
125 | ACTGTGTACC | 1.04 ± 0.015
126 | GCCGGAGGGG | 1.26 ± 0.39
127 | TTTTTTCGCG | 1 ± 0.016
128 | GGTGTAATGG | 1.04 ± 0.04
129 | TGGGGTTTCA | 1 ± 0.012
130 | GTCCCCACAG | 1.103 ± 0.007
131 | GGCCCACCCA | 1.02 ± 0.072
132 | TAATAGGGAT | 0.98 ± 0.019
133 | TGATAGGAAG | 1 ± 0.019
134 | CAGGCTAGGT | 0.9873 ± 0.0049
135 | TATTATCGTA | 0.9927 ± 0.0081
136 | CGTTTAATAT | 1 ± 0.033
137 | CGTTTTTTTG | 1.014 ± 0.0018
138 | TAACGGGGTA | 1.01 ± 0.02

Row | Sequence | switch fluorescence ratio
139 | AAGGGGTTTT | 1 ± 0.036
140 | TAGGGATGTA | 1.01 ± 0.016
141 | TTACAGGGGC | 1.11 ± 0.061
142 | GGATTCAGCT | 0.978 ± 0.027
143 | TTGTTTTAAT | 0.999 ± 0.02
144 | GTTTTGATCA | 1 ± 0.016
145 | GGTGTTTTCA | 0.988 ± 0.026
146 | AAGGCCAGGT | 1.17 ± 0.083
147 | TATTGGAGTG | 0.966 ± 0.084
148 | AAGGACAAGA | 1.02 ± 0.00092
149 | CGCTTATACG | 1.78 ± 0.58
150 | TTTAAAATTC | 1.28 ± 0.49
151 | GGGCCGGGTT | 1.01 ± 0.021
152 | CGTCTATTGT | 0.98 ± 0.046
153 | CGATGTCGTA | 1.03 ± 0.034
154 | TAGTCTACGA | 1.03 ± 0.026
155 | GCAATGTAGG | 1.04 ± 0.03
156 | CGGTTAAAAT | 0.989 ± 0.023
157 | ATTTGGGGTC | 0.9644 ± 0.0056
